Data reported in patent US7435549 (MICROMET, dated 2008).

How the values were obtained:
[1] = biological target: T1, CD80-VD4.5VK8 scFv(VH/VL) construct with short (Gly4Ser1)1 linker (human, UniProt P33681 35-242); test: flow cytometry on 17-1A-transfected CHO cells, anti-CD80 detection
T1 construct: extracellular domain; Tested as CHO culture supernatant; also called bifunctional CD80-VD4.5VK8-scFv-construct; pEF-DHFR+CTI+CD80+scFv VD4.5VK8
Method: FIG. 9.1: Binding studies of 17-1A specific bifunctional CD80-scFv-constructs on 17-1A transfected (filled lines) and untransfected CHO cells (broken lines) detected by flow cytometry. 5 ×10^5 cells were incubated in 50 μl undiluted cell-culture supernatant containing the corresponding bifunctional construct. Bound bifunctional CD80-scFv-constructs were detected by a monoclonal anti-CD80 antibody (Immunotech. Cat. No.: 1449) diluted 1:20 in 50 μl PBS. Incubation conditions were the same as described in FIG. 8.5. Bound CD80-antibody was finally detected by a fluorescein conjugated polyclonal Goat Anti-Mouse IgG+IgM (H+L) antibody diluted 1:100 in PBS. Incubation was again carried out for 30 minutes on ice. For the fixation of fluorescein-labeled cells 1% paraformaldehyd in PBS was used. As first negative control untransfected CHO was used. […] Cells were analysed by flow cytometry on a FACS scan (Becton Dickenson).
For this purpose adherent untransfected and 17-1A-transfected CHO-cells were detached using PBS containing 0,05% Trypsine, respectively. […] Bound bifunctional CD80-scFv-constructs were detected by a monoclonal anti-CD80 antibody (Immunotech. Cat. No: 1449) diluted 1:20 in 50 µl PBS. […] Bound CD80-antibody was finally detected by a fluorescein conjugated polyclonal Goat Anti-Mouse IgG+IgM (H+L) antibody diluted 1:100 in PBS. […]

[2] = biological target: T2, bifunctional CD80-anti-17-1A scFv construct, clone 5-3 (human, UniProt P33681 35-242); test: flow cytometry on 17-1A-transfected CHO cells, undiluted supernatant, anti-CD80 detection
T2 construct: extracellular domain; CHO culture supernatant; also called pEFDHFR+CTI+CD80+scFv anti 17-1A 5-3; CD80-scFv-construct 5-3
Method: (§1) FIG. 9.1: Binding studies of 17-1A specific bifunctional CD80-scFv-constructs on 17-1A transfected (filled lines) and untransfected CHO cells (broken lines) detected by flow cytometry. 5 ×10^5 cells were incubated in 50 μl undiluted cell-culture supernatant containing the corresponding bifunctional construct. Bound bifunctional CD80-scFv-constructs were detected by a monoclonal anti-CD80 antibody (Immunotech. Cat. No.: 1449) diluted 1:20 in 50 μl PBS. Incubation conditions were the same as described in FIG. 8.5. Bound CD80-antibody was finally detected by a fluorescein conjugated polyclonal Goat Anti-Mouse IgG+IgM (H+L) antibody diluted 1:100 in PBS. Incubation was again carried out for 30 minutes on ice. For the fixation of fluorescein-labeled cells 1% paraformaldehyd in PBS was used. As first negative control untransfected CHO was used. The second negative control contained 17-1A-transfected cells that were incubated with PBS instead of bifunctional CD80-scFv-constructs. Cells were analysed by flow cytometry on a FACS scan (Becton Dickenson).
(§2) For this purpose adherent untransfected and 17-1A-transfected CHO-cells were detached using PBS containing 0,05% Trypsine, respectively. 5 ×10^5 cells were incubated for 30 minutes on ice in 50 µl culture supernatant containing the corresponding bifunctional construct undiluted (FIG. 9.1). Bound bifunctional CD80-scFv-constructs were detected by a monoclonal anti-CD80 antibody (Immunotech. Cat. No: 1449) diluted 1:20 in 50 µl PBS. Incubation conditions were the same as above. Bound CD80-antibody was finally detected by a fluorescein conjugated polyclonal Goat Anti-Mouse IgG+IgM (H+L) antibody diluted 1:100 in PBS. Incubation was again carried out for 30 minutes on ice. For the fixation of fluorescein-labeled cells 1% paraformaldehyd in PBS was used.

[3] = biological target: T3, bifunctional CD80-anti-17-1A scFv construct, clone 4-7 (human, UniProt P33681 35-242); test: as above
T3 construct: extracellular domain; CHO culture supernatant; also called pEFDHFR+CTI+CD80+scFv anti 17-1A 4-7; CD80-scFv-construct 4-7
Method: as §1, §2

[4] = biological target: T4, bifunctional CD80-anti-17-1A scFv construct, clone 5-13 (human, UniProt P33681 35-242); test: as above
T4 construct: extracellular domain; CHO culture supernatant; also called pEF-DHFR+CTI+CD80+scFv 17-1A clone 5-13; CD80-scFv-construct 5-13
Method: as §1, §2

[5] = biological target: T5, bifunctional CD80-anti-17-1A scFv construct, clone 3-5 (human, UniProt P33681 35-242); test: as above
T5 construct: extracellular domain; CHO culture supernatant; also called pEF-DHFR+CTI+CD80+scFv 17-1A clone 3-5; CD80-scFv-construct 3-5
Method: as §1, §2

[6] = biological target: T6, bifunctional CD80-anti-17-1A scFv construct, clone 4-1 (human, UniProt P33681 35-242); test: as above
T6 construct: extracellular domain; CHO culture supernatant; also called pEF-DHFR+CTI+CD80+scFv 17-1A clone 4-1; CD80-scFv-construct 4-1
Method: as §1, §2

[7] = biological target: T7, bifunctional CD80-anti-17-1A scFv construct, clone 4-4 (human, UniProt P33681 35-242); test: as above
T7 construct: extracellular domain; CHO culture supernatant; also called pEF-DHFR+CTI+CD80+scFv 17-1A clone 4-4; CD80-scFv-construct 4-4
Method: as §1, §2

[8] = biological target: T8, bifunctional CD80-anti-17-1A scFv construct, clone 3-1 (human, UniProt P33681 35-242); test: as above
T8 construct: extracellular domain; CHO culture supernatant; also called pEF-DHFR+CTI+CD80+scFv 17-1A clone 3-1; CD80-scFv-construct 3-1
Method: as §1, §2

[9] = biological target: T9, bifunctional CD80-anti-17-1A scFv construct, clone 5-10 (human, UniProt P33681 35-242); test: as above
T9 construct: extracellular domain; CHO culture supernatant; also called pEHDFR+CTI+CD80+scFv anti 17-1A 5-10; CD80-scFv-construct 5-10
Method: as §1, §2

binding result [2]: binds
binding result [3]: binds
binding result [4]: binds
binding result [5]: binds
binding result [6]: binds
binding result [7]: binds
binding result [8]: binds
binding result [9]: binds
B1: transmembrane 17-1A antigen (complete amino acid sequence, GA733-2) on transfected CHO cells (other, UniProt P16422 24-314, looked up)
chain: QEECVCENYKLAVNCFVNNNRQCQCTSVGAQNTVICSKLAAKCLVMKAEMNGSKLGRRAKPEGALQNNDGLYDPDCDESGLFKAKQCNGTSMCWCVNTAGVRRTDKDTEITCSERVRTYWIIIELKHKAREKPYDSKSLRTALQKEITTRYQLDPKFITSILYENNVITIDLVQNSSQKTQNDVDIADVAYYFEKDVKGESLFHSKKMDLTVNGEQLDLDPGQTLIYYVDEKAPEFSMQGLKAGVIAVIVVVVIAVVAGIVVLVISRKKRMAKYEKAEIKEMGEMHRELNA
notes: whole, on cells; also called 17-1A-transfected CHO-cells
binding result [1]: no binding (tested: undiluted culture supernatant)
